Results from patent US20220252601A1 (JW BIOSCIENCE, published 2022).

How the values were obtained:
Experiment in all cases: indirect ELISA, antigen coated at 1 µg/ml
[1] = target: T1, GRS (glycyl tRNA synthetase) (UniProt P41250 55-739, limits assumed)
T1 sequence (looked up): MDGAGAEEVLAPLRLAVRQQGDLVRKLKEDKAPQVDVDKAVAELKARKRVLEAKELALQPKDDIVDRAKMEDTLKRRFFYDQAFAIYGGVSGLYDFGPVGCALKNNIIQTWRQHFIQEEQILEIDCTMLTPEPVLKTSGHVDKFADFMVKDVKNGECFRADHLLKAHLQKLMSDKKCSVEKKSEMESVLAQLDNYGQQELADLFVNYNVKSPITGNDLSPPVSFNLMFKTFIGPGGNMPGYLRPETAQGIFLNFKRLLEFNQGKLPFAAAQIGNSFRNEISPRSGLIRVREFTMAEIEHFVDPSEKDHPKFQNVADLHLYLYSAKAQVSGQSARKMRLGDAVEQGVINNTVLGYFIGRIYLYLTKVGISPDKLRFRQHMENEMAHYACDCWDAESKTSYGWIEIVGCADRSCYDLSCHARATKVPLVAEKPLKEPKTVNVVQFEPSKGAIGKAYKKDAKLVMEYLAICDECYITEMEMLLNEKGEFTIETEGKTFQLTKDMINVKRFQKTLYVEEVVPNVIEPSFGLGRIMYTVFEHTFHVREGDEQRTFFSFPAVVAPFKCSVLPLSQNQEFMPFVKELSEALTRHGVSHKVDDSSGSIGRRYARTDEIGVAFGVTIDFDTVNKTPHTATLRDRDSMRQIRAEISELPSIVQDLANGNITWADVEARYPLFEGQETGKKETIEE

[2] = target: KRS (lysyl tRNA synthetase) (UniProt Q15046 1-597, limits assumed)
Chain of KRS (lysyl tRNA synthetase) (Q15046 whole entry): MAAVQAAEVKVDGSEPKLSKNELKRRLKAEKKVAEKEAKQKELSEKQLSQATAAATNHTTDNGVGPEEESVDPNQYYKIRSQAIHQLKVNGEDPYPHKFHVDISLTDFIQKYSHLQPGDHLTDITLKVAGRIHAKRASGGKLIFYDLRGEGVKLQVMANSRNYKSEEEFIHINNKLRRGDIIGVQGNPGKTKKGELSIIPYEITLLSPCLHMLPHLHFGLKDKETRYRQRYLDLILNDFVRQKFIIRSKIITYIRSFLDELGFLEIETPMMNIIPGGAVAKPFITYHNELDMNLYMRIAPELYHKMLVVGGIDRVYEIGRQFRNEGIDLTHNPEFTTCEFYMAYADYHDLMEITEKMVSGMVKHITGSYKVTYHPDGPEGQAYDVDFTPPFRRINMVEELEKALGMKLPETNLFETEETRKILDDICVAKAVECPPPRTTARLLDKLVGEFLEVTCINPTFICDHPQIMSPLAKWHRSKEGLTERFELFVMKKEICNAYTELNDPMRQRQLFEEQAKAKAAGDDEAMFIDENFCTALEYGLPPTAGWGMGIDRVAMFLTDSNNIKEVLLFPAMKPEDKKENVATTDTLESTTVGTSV

[3] = target: T2, CRS (cysteinyl-tRNA synthetase) (UniProt P49589 1-748, limits assumed)
T2 sequence (looked up): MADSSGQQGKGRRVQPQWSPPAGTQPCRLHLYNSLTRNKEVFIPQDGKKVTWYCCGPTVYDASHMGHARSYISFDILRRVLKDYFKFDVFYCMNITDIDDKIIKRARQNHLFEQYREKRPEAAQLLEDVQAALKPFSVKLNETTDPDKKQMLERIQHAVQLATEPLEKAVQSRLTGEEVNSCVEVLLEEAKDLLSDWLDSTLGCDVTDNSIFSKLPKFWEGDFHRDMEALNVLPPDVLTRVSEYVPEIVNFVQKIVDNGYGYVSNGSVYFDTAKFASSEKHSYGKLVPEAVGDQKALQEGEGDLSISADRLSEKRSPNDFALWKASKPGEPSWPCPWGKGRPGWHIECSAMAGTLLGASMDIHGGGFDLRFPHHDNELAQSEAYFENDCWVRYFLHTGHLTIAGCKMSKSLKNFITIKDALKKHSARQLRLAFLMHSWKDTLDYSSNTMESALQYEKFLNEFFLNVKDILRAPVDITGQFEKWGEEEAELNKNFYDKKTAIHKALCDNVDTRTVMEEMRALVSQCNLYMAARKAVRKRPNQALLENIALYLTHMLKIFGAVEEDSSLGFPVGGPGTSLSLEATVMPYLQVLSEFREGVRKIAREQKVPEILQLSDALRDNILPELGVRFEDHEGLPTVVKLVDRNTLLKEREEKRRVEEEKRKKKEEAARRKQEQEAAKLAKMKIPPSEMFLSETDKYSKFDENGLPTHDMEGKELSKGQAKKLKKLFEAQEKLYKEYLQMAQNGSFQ

[4] = target: T3, AIMP1 (aminoacyl tRNA synthase complex-interacting multifunctional protein 1) (UniProt Q12904 1-312, limits assumed)
T3 construct: also called p43
T3 sequence (looked up): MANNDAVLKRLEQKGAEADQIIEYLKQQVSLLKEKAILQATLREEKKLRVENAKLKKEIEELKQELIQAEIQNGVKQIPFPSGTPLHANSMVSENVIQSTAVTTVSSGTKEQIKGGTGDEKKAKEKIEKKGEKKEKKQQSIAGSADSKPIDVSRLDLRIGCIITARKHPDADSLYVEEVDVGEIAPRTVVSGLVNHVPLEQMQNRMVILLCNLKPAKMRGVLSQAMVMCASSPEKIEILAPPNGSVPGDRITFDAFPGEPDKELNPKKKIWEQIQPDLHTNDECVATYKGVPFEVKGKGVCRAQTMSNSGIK

Measured: binding result

B1: 3B6 (antibody, V domains shown)
VH: EVQLLESGGGLVQPGGSLRLSCAASGFTFSSYSMSWVRQAPGKGLEWVSAISYDNGNTYYADSVKGRFTISRDNSKNTLYLQMNSLRAEDTAVYYCAKGATTQPHTSFDYWGQGTLVTVNS
VL: QSVLTQPPSASGTPGQRVTISCSGSSSNIGNNNVSWYQQLPGTAPKLLIYYNSHRPSGVPDRFSGSKSGTSASLAISGLRSEDEADYYCGTWDASLSAYVFGGGTKLTVL
modifications: Antibody was biotin-attached in the ELISA of Example 5; site not stated.
no binding (tested: 500 ng/ml): all assays above

B2: 4H9 (antibody, V domains shown)
VH: EVQLLESGGGLVQPGGPLRLSCAASGFTFSNYAMSWVRQAPGKGLEWVSSIYPDGGGIYYADSVKGRFTISRDNSKNTLYLQMNSLRAEDTAVYYCARDLYPFGPDTFDYWGQGTLVTVSS
VL: QSVLTQPPSASGTPGQRVTISCSGSSSNIGSNDVTWYQQLPGTAPKLLIYDNSKRPSGVPDRFSGSKSGTSASLAISGLRSEDEADYYCGAWDDSLSGYVFGGGTKLTVL
modifications: Antibody was biotin-attached in the ELISA of Example 5; site not stated.
no binding (tested: 500 ng/ml): all assays above

B3: 1D4C3 (antibody, V domains shown)
VH: QAYLQQSGAELVRPGASVKMSCKASGYTFTSYNMHWVKQTPRQGLEWIGAIYPGNGDSSYNQKFKGKATLTVGKSSSTAYMQLSSLTSEDSAVYFCARWHYGSTYYAMDYWGQGTSVTVSS
VL: DIQMTQTTSSLSASLGDRVTISCRASQDISNYLNWFQQKPDGTVKLLIYYTSRLHSGVPSRFSGSGSGTDYSLTISNLEQEDFATYFCQQGKTLPHTFGGGTKLEIK
modifications: Antibody was biotin-attached in the ELISA of Example 5; site not stated.
notes: detected with anti-mouse HRP; also called 1D4C4
no binding (tested: 500 ng/ml): all assays above

B4: 3B10H5 (antibody, V domains shown)
VH: QAYLQQSGAELVRPGASVKMSCKASGYTFTSYNLHWVKQTPRQGLKWIGAIYPGNGDTSYNQKFKGKATLTVDKSSSTAYMQLSSLTSEDSAVYFCARWHYGSSYYAMDYWGQGTSVTVSS
VL: DIQMTQTTSSLSASLGDRVTISCRASQDISNYLNWYQQKPDGTVKLLISYTSRLHSGVPSRFSGSGSGTDYSLTISNLEQEDIATYFCQQGYTLPHTFGGGTKLEIK
modifications: Antibody was biotin-attached in the ELISA of Example 5; site not stated.
notes: detected with anti-mouse HRP
no binding (tested: 500 ng/ml): all assays above

B5: 4G4 (antibody, V domains shown)
VH: EVQLLESGGGLVQPGGSLRLSCAASGLTFSNYAMSWVRQAPGKGLEWVSWISPGDGNKYYADSVRGRFTVSRDNSKNTLYLQMNSLRAEDTAVYYCARVTIPCRRTTCYSANGMDVWGQGTLVTVSS
VL: QSVLTQPPSASGTPGQRVTISCSGSSSNIGSNSVTWYQQLPGTAPKLLIYHDSHPPSGVPDRFSGSKSGTSASLAISGLRSEDEADYYCAAWDDSLSGYVFGGGTKLTVL
modifications: Antibody was biotin-attached in the ELISA of Example 5; site not stated.
no binding (tested: 500 ng/ml): all assays above
